# Measured values published in PMC10726430 (Cell metabolism, 2023).
# Target: the molecule itself
# Assay: native gel or EMSA
protein,measurement,value
"NSUN2-F1 (amino acid 1–767), recombinant NSUN2 protein (enzyme, human, UniProt Q08J23-1 1-767, looked up) MGRRSRGRRLQQQQRPEDAEDGAEGGGKRGEAGWEGGYPEIVKENKLFEHYYQELKIVPEGEWGQFMDALREPLPATLRITGYKSHAKEILHCLKNKYFKELEDLEVDGQKVEVPQPLSWYPEELAWHTNLSRKILRKSPHLEKFHQFLVSETESGNISRQEAVSMIPPLLLNVRPHHKILDMCAAPGSKTTQLIEMLHADMNVPFPEGFVIANDVDNKRCYLLVHQAKRLSSPCIMVVNHDASSIPRLQIDVDGRKEILFYDRILCDVPCSGDGTMRKNIDVWKKWTTLNSLQLHGLQLRIATRGAEQLAEGGRMVYSTCSLNPIEDEAVIASLLEKSEGALELADVSNELPGLKWMPGITQWKVMTKDGQWFTDWDAVPHSRHTQIRPTMFPPKDPEKLQAMHLERCLRILPHHQNTGGFFVAVLVKKSSMPWNKRQPKLQGKSAETRESTQLSPADLTEGKPTDPSKLESPSFTGTGDTEIAHATEDLENNGSKKDGVCGPPPSKKMKLFGFKEDPFVFIPEDDPLFPPIEKFYALDPSFPRMNLLTRTTEGKKRQLYMVSKELRNVLLNNSEKMKVINTGIKVWCRNNSGEEFDCAFRLAQEGIYTLYPFINSRIITVSMEDVKILLTQENPFFRKLSSETYSQAKDLAKGSIVLKYEPDSANPDALQCPIVLCGWRGKASIRTFVPKNERLHYLRMMGLEVLGEKKKEGVILTNESAASTGQPDNDVTEGQRAGEPNSPDAEEANSPDVTAGCDPAGVHPPR",binding result,binds
